Source: patent US8680233B2, “Heteropeptides useful for reducing nonspecific adsorption” (Valorisation-Recherche, Limited Partnership, priority 2009, dated 2014)
One block for each molecule: values may come before it. Numbered stars: 1 amine (or outer) side, 2 acyl side, 3 side chain; on linkers, the order of the positions; unused ones are H or OH. Square brackets hold non-standard residues; d marks the D form. Peptide text beside a SMILES is read from it. Haic = O=C1[C@@H](N[*:1])CCc2cccc3c2N1[C@H](C(=O)[*:2])C3; dTrp(2-Me) = Cc1[nH]c2ccccc2c1C[C@@H](N)C(=O)O

Tests used:
[1] = biological target: recombinant soluble His-tagged CD36 (Homo sapiens, UniProt P16671); experiment: SPR screening of peptide ligands on a CD36 functionalized sensor; assay type: binding; settings: increasing ligand concentrations
Method: (§1) The SPR sensors for screening small peptidic ligand binding to a recombinant soluble His-tagged CD36 functionalized surfaces were prepared as described above. Five ligands were investigated: EP80317, CP-2B(i), CP-3(iv), CP-2A(v) and DBG-178(27) with concentrations ranging from 30 μM to 100 nM except for EP80317. The latter was used for optimizing the system with solutions ranging from 1 mM to 100 nM. EP80317 (HAIC-2MeDTrp-DLys-Trp-D-Phe-Lys-NH2) is a positive control of known activity, CP-2B(i) (His-DTrp-AzaLeu-Trp-DPhe-Ala-NH2) is a negative control, and CP-3(iv) (Ala-DTrp-Ala-AzaPhe-DPhe-Lys-NH2), CP-2A(v) (His-DTrp-AzaGly-Trp-DPhe-Lys-NH2) and DBG-178(27) (His-DTrp-Ala-azaTyr-DPhe-Lys-NH2) are novel CD36 ligands (see PCT publication No. WO 08/154,738). Another negative control was accomplished by exposing the His-tagged hDHFR functionalized surface to the same concentration of CD36 peptidic ligand. Two different approaches were used to remove the His-tagged CD36-Cu complex from the SPR sensors: concentrated histidine solution or saturated EDTA solution.
This is the case of the CD36-ligand system investigated herein, where the ligands are small peptides of about 800 to 1000 g/mol. Indeed, according to the aforementioned principle, the binding of the small peptides to the CD36 receptor should be close to the limit of detection, thus providing unreliable affinity measurements. […] This could be a consequence of a large conformational change of the CD36 receptor upon binding of specific ligands, thus providing the amplification sufficient for SPR signal detection.
The SPR setup was used for investigating the structure-activity relationships of various CD36 peptidic ligands. […] The measured KD's were compared to the EC50 values obtained in the activated src-kinase assay following CD36 receptor activation by the tested peptides. […] For the src-kinase cellular assay, the response sensitivity (EC50) for the tested peptides (in decreasing order) was as follows: EP80317>CP-2A(v)>CP-3(iv)>DBG-178(27)>CP-2B(i). With SPR, the binding affinity to CD36, in decreasing order, was: DBG-178(27)>CP-2A(v)>EP80317>CP-3(iv)>CP-2B(i). […] For CD36-peptidic ligands, a correlation appears between the affinity binding of the small peptides for CD36 as determined by SPR and their efficiency to produce a cellular response in the src kinase assay. Thus, SPR appears as a selective and sensitive method to screen for CD36 ligands.

His-tagged hDHFR = biological target: T1, His-tagged hDHFR (Homo sapiens, UniProt P00374); experiment: SPR blank assay on a hDHFR-His-Tag functionalized sensor; assay type: binding; settings: same peptide concentrations
T1 construct: made in house
T1 sequence (P00374 1-187): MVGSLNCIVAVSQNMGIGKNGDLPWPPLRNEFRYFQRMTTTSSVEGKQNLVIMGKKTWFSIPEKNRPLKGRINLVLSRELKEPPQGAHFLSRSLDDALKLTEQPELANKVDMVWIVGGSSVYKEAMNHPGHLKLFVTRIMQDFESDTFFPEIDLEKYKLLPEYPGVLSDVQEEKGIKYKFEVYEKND
Method: as §1
This is the case of the CD36-ligand system investigated herein, where the ligands are small peptides of about 800 to 1000 g/mol. Indeed, according to the aforementioned principle, the binding of the small peptides to the CD36 receptor should be close to the limit of detection, thus providing unreliable affinity measurements. […]

[2] = biological target: T2, human dihydrofolate reductase (hDHFR) (Homo sapiens, UniProt P00374); settings: previously determined in presence of saturating reactants; cited from earlier work
T2 construct: made in house
T2 sequence (P00374 1-187): T1 sequence (P00374 1-187)

[3] = biological target: T2, human dihydrofolate reductase (hDHFR); experiment: Real-time UV/Vis monitoring of the enzymatic reaction of immobilized hDHFR; assay type: biochemical
Method: The peptidomimetic monolayer binding His-tagged biomolecules was exposed for a period of 15 min to a 50 μg/mL PBS solution of His-tagged hDHFR, then rinsed with PBS. The SPR sensor with His-tagged hDHFR was placed in a UV/Vis cuvette, similar to a method developed by Knoll et al. (Xu et al., 2005. Journal of the American Chemical Society 127(38), 13084-13085). His-tagged hDHFR was obtained as previously reported (Volpato et al., 2007 Journal of Molecular Biology 373, 599-611). A negative control, consisting of the peptidomimetic-modified SPR sensor without hDHFR was exposed to buffer and rinsed to verify that the observed change in absorbance was due to immobilized His-tagged hDHFR and not to the surface itself. The enzymatic reaction catalyzed by hDHFR was monitored by UV/Vis spectrometry. The SPR sensors were immersed in a solution of 100 μM NADPH (cofactor) and 100 μM dihydrofolate (DHF, substrate) in 10 mM Tris buffer, pH=8.0, for 1 hour. The activity of the enzyme was measured by following the time course of the absorption (ΔA(t)) at λ=340 nm due to consumption of NADPH and DHF, by subtracting the blank signal (Ablank(t)) and the initial absorbance of the solution (A(O)). The activity was confirmed for each sample of His-tagged hDHFR on the SPR sensor. 1 U of enzyme activity corresponds to conversion of 1 μmol substrate to product per min. Absorption spectra were recorded with a Cary 100 Bio UV/Vis spectrometer equipped with a liquid temperature control system running at 35° C. to be in the optimal condition for the enzymatic reaction to take place. After monitoring the activity, the SPR sensors were rinsed with buffer, 18.2 MΩ water and the His-tagged hDHFR was removed from the surface with a 0.5 M imidazole solution for 10 minutes. […]
In contrast with those results, immobilizing His-tagged hDHFR on the peptidomimetic monolayer allowed to retain the activity of the enzyme. This is observed by a consumption of the reactants (NADPH and DHF), decreasing the absorbance measured at λ=340 nm (FIG. 3). According to the absorption coefficient (Δ∈=12.8 mM^−1 cm^−1), the measured slope (5.7*10 Abs/min) corresponded to an activity of 4.4±0.8*10^−5 U. The specific activity of His-tagged hDHFR previously determined in presence of saturating reactants was 8.5 U/mg. Thus, the activity measured on the surface corresponded to 5±0.9 ng (n=4) of fully active hDHFR. […] The fraction of active enzyme on the surface cannot be determined, because the activity measured for the enzyme immobilized on the surface of the SPR is a factor of the activity of the enzyme (as for the enzyme in solution) and the time required for the products to diffuse in the light beam of the UV-Vis (not a factor for the enzyme in solution). […]

Sequence of recombinant soluble His-tagged CD36 (P16671 30-439 limits assumed): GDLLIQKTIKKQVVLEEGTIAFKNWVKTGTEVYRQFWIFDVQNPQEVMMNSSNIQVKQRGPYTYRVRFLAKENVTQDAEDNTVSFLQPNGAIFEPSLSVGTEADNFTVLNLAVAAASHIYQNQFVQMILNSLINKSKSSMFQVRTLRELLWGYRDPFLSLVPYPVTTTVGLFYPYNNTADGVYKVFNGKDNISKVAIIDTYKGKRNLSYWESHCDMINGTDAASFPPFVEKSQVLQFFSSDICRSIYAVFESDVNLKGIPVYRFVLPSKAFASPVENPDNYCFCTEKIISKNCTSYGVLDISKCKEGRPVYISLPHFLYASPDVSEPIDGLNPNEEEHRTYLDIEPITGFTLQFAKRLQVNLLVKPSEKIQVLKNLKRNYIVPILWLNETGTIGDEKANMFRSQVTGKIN

Change of SPR signal on CD36-His-tag-functionalized surface [1]: large shift in the signal
Change of SPR signal on hDHFR-His-Tag functionalized sensor (His-tagged hDHFR): no significant change of signal
Molecule: Cc1[nH]c2ccccc2c1C[C@@H](NC(=O)[C@@H]1Cc2cccc3c2N1C(=O)[C@@H](N)CC3)C(=O)N[C@H](CCCCN)C(=O)N[C@@H](Cc1c[nH]c2ccccc12)C(=O)N[C@H](Cc1ccccc1)C(=O)N[C@@H](CCCCN)C(N)=O [EP80317, HAIC-2MeDTrp-DLys-Trp-D-Phe-Lys-NH2, reference compound] (Haic-[dTrp(2-Me)][dK]W[dF]K-NH2; N-terminus assumed)

Average variation of the absorbance value over 60 minutes ([3]; four sensors regenerated with imidazole, n=8): −0.034±0.006
Amount of fully active enzyme corresponding to the measured surface activity ([3]; n=4): 5 ± 0.9 ng
B1: His-tagged hDHFR: His-tagged human dihydrofolate reductase immobilized on the SPR sensor (protein)
chain: T1 sequence (P00374 1-187)
modifications: left off: small tags and cut ends
notes: His-tagged human dihydrofolate reductase immobilized on the SPR sensor
Specific activity [2]: 8.5 U/mg
Enzyme activity after covalent immobilization ([3]; covalently immobilized to 16-MHA using EDC/NHS chemistry): inactive
Enzyme activity of immobilized enzyme ([3]; immobilized on peptidomimetic monolayer, absorbance at 340 nm): 4.4±0.8*10^−5 U
